Reference: US20070196374A1 (published 2007)

Assays:
VEGF [1] = molecular target: T1, VEGF (human, UniProt P15692-4 27-191, limits assumed); assay: BIAcore-2000 SPR, wt = Y0192
T1 construct: also called vascular endothelial growth factor; biotinylated VEGF
Description: The VEGF-binding affinities of Fab fragments were calculated from association and dissociation rate constants measured using a BIAcore-2000™ surface plasmon resonance system (BIAcore, Inc., Piscataway, N.J.). A biosensor chip was activated for covalent coupling of VEGF using N-ethyl-N′-(3-dimethylaminopropyl)-carbodiimide hydrochloride (EDC) and N-hydroxysuccinimide (NHS) according to the supplier's (BIAcore, Inc., Piscataway, N.J.) instructions. VEGF was buffered exchanged into 20 mM sodium acetate, pH 4.8 and diluted toapproximately 50 μg/mL. An aliquot (35 μL) was injected at a flow rate of 2 μL/min to achieve approximately 700-1400 response units (RU) of coupled protein. Finally, 1 M ethanolamine was injected as a blocking agent.
For kinetics measurements, two-fold serial dilutions of Fab were injected in PBS/TWEEN™ buffer (0.05% TWEEN 20™ in phosphate buffered saline) at 25° C. at a flow rate of 10 μL/min. […] Equilibrium dissociation constants, Kd's from surface plasmon resonance (SPR) measurements were calculated as koff/kon.

VEGF [2] = molecular target: T1, VEGF; assay: competition ELISA: Fab + biotinylated VEGF, then KDR-IgG plate
Description: Standards (6.9-440 ng/ml chimeric F(ab)) and two-fold serial of samples were incubated with 2 nM biotinylated VEGF for 1 h in tubes. The solutions from the tubes were then transferred to the ELISA plates and incubated for 1 h. […] Titration curves were fit with a four-parameter nonlinear regression curve-fitting program (KaleidaGraph, Synergy Software, Reading Pa.). […] Assays for full-length IgG were the same as for the F(ab)s except that the assay buffer contained 10% human serum.

VEGF121 [3] = molecular target: T2, VEGF121 (human, UniProt P15692 27-147); assay: BIAcore SPR, VEGF121 on chip
T2 construct: mature; also called Purified VEGF121
T2 sequence (looked up): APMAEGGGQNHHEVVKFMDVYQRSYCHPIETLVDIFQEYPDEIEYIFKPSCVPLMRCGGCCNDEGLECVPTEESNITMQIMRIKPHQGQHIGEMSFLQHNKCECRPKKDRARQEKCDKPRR
Description: (§1) VEGF₁₂₁ was covalently immobilized on the biosensor chip via primary amino groups. Binding of humanized A4.6.1 Fab variants was measured by flowing solutions of Fab in PBS/0.05% TWEEN 20™ over the chip at a flow rate of 20 μL/min. Following each binding measurement, residual Fab was stripped from the immobilized ligand by washing with 5 μL of 50 mM aqueous HCl at 3 μL/min. Binding profiles were analyzed by nonlinear regression using a simple monovalent binding model (BIAevaluation software v2.0; Pharmacia).

VEGF121 [4] = molecular target: T2, VEGF121; assay: BIAcore SPR, VEGF121 on chip, Fab in flow
Description: as §1

B1: Y0238-1 (Fab, V domains shown)
VH: EVQLVESGGGLVQPGGSLRLSCAASGYTFTNYGINWVRQAPGKGLEWVGWINTYTGEPTYAADFKRRFTFSLDTSKSTAYLQMNSLRAEDTAVYYCAKYPYYRGTSHWYFDVWGQGTL
VL: DIQLTQSPSSLSASVGDRVTITCRANEQLSNYLNWYQQKPGKAPKVLIYFTSSLHSGVPSRFSGSGSGTDFTLTISSLQPEDFATYYCQQYSTVPWTFGQGTKVEIKR
notes: Clone of library YC-81 on the pY0192 template; Soluble Fab
B1 was tested, and the “Kd (wt)/Kd” value (VEGF [1]) was 7.3 ratio.

B2: Y0313-3 (Fab, V domains shown)
VH: EVQLVESGGGLVQPGGSLRLSCAASGYTFTNYGINWVRQAPGKGLEWVGWINTYTGEPTYAADFKRRFTFSLDTSKSTAYLQMNSLRAEDTAVYYCAKYPYYYGSSHWYFDVWGQGTL
VL: DIQLTQSPSSLSASVGDRVTITCRANEQLSNYLNWYQQKPGKAPKVLIYFTSSLHSGVPSRFSGSGSGTDFTLTISSLQPEDFATYYCQQYSTVPWTFGQGTKVEIKR
notes: Reversion mutant of Y0238-3 (VH3 T105S); soluble Fab
With B2 the “Kd (wt)/Kd” value (VEGF [1]) was 4.5 ratio.

B3: Y0243-1 (Fab, V domains shown)
VH: EVQLVESGGGLVQPGGSLRLSCAASGYDFTHYGMNWVRQAPGKGLEWVGWINTYTGEPTYAADFKRRFTFSLDTSKSTAYLQMNSLRAEDTAVYYCAKYPHYYGSSHWYFDVWGQGTL
VL: DIQLTQSPSSLSASVGDRVTITCRANEQLSNYLNWYQQKPGKAPKVLIYFTSSLHSGVPSRFSGSGSGTDFTLTISSLQPEDFATYYCQQYSTVPWTFGQGTKVEIKR
notes: Soluble Fab from E. coli 34B8
B3 was tested, and the “Kd (wt)/Kd” value (VEGF [1]) was 4.1 ratio.

B4: Y0238-5 (Fab, V domains shown)
VH: EVQLVESGGGLVQPGGSLRLSCAASGYTFTNYGINWVRQAPGKGLEWVGWINTYTGEPTYAADFKRRFTFSLDTSKSTAYLQMNSLRAEDTAVYYCAKYPYYIAKSHWYFDVWGQGTL
VL: DIQLTQSPSSLSASVGDRVTITCRANEQLSNYLNWYQQKPGKAPKVLIYFTSSLHSGVPSRFSGSGSGTDFTLTISSLQPEDFATYYCQQYSTVPWTFGQGTKVEIKR
notes: as for B1
With B4 the “Kd (wt)/Kd” value (VEGF [1]) was 3.2 ratio.

B5: Y0244-4 (Fab, V domains shown)
VH: EVQLVESGGGLVQPGGSLRLSCAASGYTFTNYGINWVRQAPGKGLEWVGWINTYTGEPTYAADFKRRFTFSIDKSKSTAYLQMNSLRAEDTAVYYCAKYPHYYGSSHWYFDVWGQGTL
VL: DIQLTQSPSSLSASVGDRVTITCRANEQLSNYLNWYQQKPGKAPKVLIYFTSSLHSGVPSRFSGSGSGTDFTLTISSLQPEDFATYYCQQYSTVPWTFGQGTKVEIKR
notes: Soluble Fab
B5 was tested, and the “Kd (wt)/Kd” value (VEGF [1]) was 0.9 ratio.

B6: Y0244-1 (Fab, V domains shown)
VH: EVQLVESGGGLVQPGGSLRLSCAASGYTFTNYGINWVRQAPGKGLEWVGWINTYTGEPTYAADFKRRFTFSVDVSKSTAYLQMNSLRAEDTAVYYCAKYPHYYGSSHWYFDVWGQGTL
VL: DIQLTQSPSSLSASVGDRVTITCRANEQLSNYLNWYQQKPGKAPKVLIYFTSSLHSGVPSRFSGSGSGTDFTLTISSLQPEDFATYYCQQYSTVPWTFGQGTKVEIKR
notes: Soluble Fab
B6 was tested, and the “Kd (wt)/Kd” value (VEGF [1]) was 3.6 ratio.

B7: Y0238-10 (Fab, V domains shown)
VH: EVQLVESGGGLVQPGGSLRLSCAASGYTFTNYGINWVRQAPGKGLEWVGWINTYTGEPTYAADFKRRFTFSLDTSKSTAYLQMNSLRAEDTAVYYCAKYPYYRNTSHWYFDVWGQGTL
VL: DIQLTQSPSSLSASVGDRVTITCRANEQLSNYLNWYQQKPGKAPKVLIYFTSSLHSGVPSRFSGSGSGTDFTLTISSLQPEDFATYYCQQYSTVPWTFGQGTKVEIKR
notes: as for B1
In the case of B7, the “Kd (wt)/Kd” value (VEGF [1]) is reported as 4.8 ratio.

B8: Y0238-7 (Fab, V domains shown)
VH: EVQLVESGGGLVQPGGSLRLSCAASGYTFTNYGINWVRQAPGKGLEWVGWINTYTGEPTYAADFKRRFTFSLDTSKSTAYLQMNSLRAEDTAVYYCAKYPYYWGTSHWYFDVWGQGTL
VL: DIQLTQSPSSLSASVGDRVTITCRANEQLSNYLNWYQQKPGKAPKVLIYFTSSLHSGVPSRFSGSGSGTDFTLTISSLQPEDFATYYCQQYSTVPWTFGQGTKVEIKR
notes: as for B1
For B8, the “Kd (wt)/Kd” value (VEGF [1]) was at least 7.3 ratio.

B9: chimeric F(ab) (Fab, V domains shown)
VH: EIQLVQSGPELKQPGETVRISCKASGYTFTNYGMNWVKQAPGKGLKWMGWINTYTGEPTYAADFKRRFTFSLETSASTAYLQISNLKNDDTATYFCAKYPHYYGSSHWYFDVWGAGTTVTVSS
VL: DIQMTQTTSSLSASLGDRVIISCSASQDISNYLNWYQQKPDGTVKVLIYFTSSLHSGVPSRFSGSGSGTDYSLTISNLEPEDIATYYCQQYSTVPWTFGGGTKLEIKR
notes: Murine A4.6.1 VH fused to human CH1 at SerH113 and murine VL fused to human CL at LysL107; also called chim-F(ab); A4.6.1 chimera
B9 showed an EC50 (VEGF [2]) of 49 µg/mL.

B10: F(ab)-1 (Fab, V domains shown)
VH: EVQLVESGGGLVQPGGSLRLSCAASGYTFTNYGMNWVRQAPGKGLEWVGWINTYTGEPTYAADFKRRFTISRDNSKNTLYLQMNSLRAEDTAVYYCARYPHYYGSSHWYFDVWGQGTLVTVSS
VL: DIQMTQSPSSLSASVGDRVTITCSASQDISNYLNWYQQKPGKAPKLLIYFTSSLHSGVPSRFSGSGSGTDFTLTISSLQPEDFATYYCQQYSTVPWTFGQGTKVEIK
B10 was tested, and the fold reduction of binding affinity against chimeric F(ab) (VEGF [2]) was over 1000 fold.

B11: F(ab)-8 (Fab, V domains shown)
VH: EVQLVESGGGLVQPGGSLRLSCAASGYTFTNYGMNWVRQAPGKGLEWVGWINTYTGEPTYAADFKRRFTFSLDTSKNTAYLQMNSLRAEDTAVYYCARYPHYYGSSHWYFDVWGQGTLVTVSS
VL: DIQMTQSPSSLSASVGDRVTITCSASQDISNYLNWYQQKPGKAPKVLIYFTSSLHSGVPSRFSGSGSGTDFTLTISSLQPEDFATYYCQQYSTVPWTFGQGTKVEIK
notes: F(ab)-5 with IleH69Phe and LeuH78Ala; Human CH1 and CL
B11 was tested, and the “fold improvement of binding against F(ab)-5” value (shortened to “fold improvement of binding”) (VEGF [2]) was 8 fold.

B12: hu2.10 (Fab, V domains shown)
VH: EVQLVESGGGLVQPGGSLRLSCAASGYTFTNYGMNWIRQAPGKGLEWVGWINTYTGEPTYAADFKRRFTISLDTSASTVYLQMNSLRAEDTAVYYCAKYPHYYGSSHWYFDVWGQGTLVTVSS
VL: DIQMTQSPSSLSASVGDRVTITCSASQDISNYLNWYQQKPGKAPKLLIYFTSSLHSGVPSRFSGSGSGTDYTLTISSLQPEDFATYYCQQYSTVPWTFGQGTKVEIK
notes: Phage-selected consensus clone, soluble Fab with human constant domains; also called consensus clone hu2.10
With B12 the “fold tighter KD against hu2.0” value (VEGF121 [3]) was at least 125 fold and the “KD(A4.6.1)/KD(mut) as headed (values run as KD(mut)/KD(A4.6.1))” value (VEGF121 [4]) was 35 ratio.

B13: hu2.10V (Fab, V domains shown)
VH: EVQLVESGGGLVQPGGSLRLSCAASGYTFTNYGMNWIRQAPGKGLEWVGWINTYTGEPTYAADFKRRFTISLDTSASTVYLQMNSLRAEDTAVYYCAKYPHYYGSSHWYFDVWGQGTLVTVSS
VL: DIQMTQSPSSLSASVGDRVTITCSASQDISNYLNWYQQKPGKAPKVLIYFTSSLHSGVPSRFSGSGSGTDYTLTISSLQPEDFATYYCQQYSTVPWTFGQGTKVEIK
notes: hu2.10 with the Leu->Val change at VL 46; Fab
With B13 the “fold improvement in KD against hu2.10” value (VEGF121 [3]) was 6 fold and the “KD(A4.6.1)/KD(mut) as headed (values run as KD(mut)/KD(A4.6.1))” value (VEGF121 [4]) was 5.8 ratio.

B14: F(ab)-7 (Fab, V domains shown)
VH: EVQLVESGGGLVQPGGSLRLSCAASGYTFTNYGMNWVRQAPGKGLEWVGWINTYTGEPTYAADFKRRFTFSLDTSKNTLYLQMNSLRAEDTAVYYCARYPHYYGSSHWYFDVWGQGTLVTVSS
VL: DIQMTQSPSSLSASVGDRVTITCSASQDISNYLNWYQQKPGKAPKVLIYFTSSLHSGVPSRFSGSGSGTDFTLTISSLQPEDFATYYCQQYSTVPWTFGQGTKVEIK
notes: F(ab)-5 with IleH69Phe; Human CH1 and CL
In the case of B14, the “fold improvement of binding” value (VEGF [2]) is reported as 2 fold.

B15: F(ab)-6 (Fab, V domains shown)
VH: EVQLVESGGGLVQPGGSLRLSCAASGYTFTNYGMNWVRQAPGKGLEWVGWINTYTGEPTYAADFKRRFTISLDTSKNTAYLQMNSLRAEDTAVYYCARYPHYYGSSHWYFDVWGQGTLVTVSS
VL: DIQMTQSPSSLSASVGDRVTITCSASQDISNYLNWYQQKPGKAPKVLIYFTSSLHSGVPSRFSGSGSGTDFTLTISSLQPEDFATYYCQQYSTVPWTFGQGTKVEIK
notes: F(ab)-5 with LeuH78Ala; Human CH1 and CL
B15 was tested, and the “fold improvement of binding” value (VEGF [2]) was 2 fold.

B16: F(ab)-9 (Fab, V domains shown)
VH: EVQLVESGGGLVQPGGSLRLSCAASGYTFTNYGMNWVRQAPGKGLEWVAWINTYTGEPTYAADFKRRFTFSLDTSKNTAYLQMNSLRAEDTAVYYCARYPHYYGSSHWYFDVWGQGTLVTVSS
VL: DIQMTQSPSSLSASVGDRVTITCSASQDISNYLNWYQQKPGKAPKVLIYFTSSLHSGVPSRFSGSGSGTDFTLTISSLQPEDFATYYCQQYSTVPWTFGQGTKVEIK
notes: F(ab)-8 with GlyH49Ala; Human CH1 and CL
B16 was tested, and the “fold reduction of binding against F(ab)-8” value (VEGF [2]) was 15 fold.

B17: F(ab)-5 (Fab, V domains shown)
VH: EVQLVESGGGLVQPGGSLRLSCAASGYTFTNYGMNWVRQAPGKGLEWVGWINTYTGEPTYAADFKRRFTISLDTSKNTLYLQMNSLRAEDTAVYYCARYPHYYGSSHWYFDVWGQGTLVTVSS
VL: DIQMTQSPSSLSASVGDRVTITCSASQDISNYLNWYQQKPGKAPKVLIYFTSSLHSGVPSRFSGSGSGTDFTLTISSLQPEDFATYYCQQYSTVPWTFGQGTKVEIK
notes: Human CH1 and CL
B17 was tested, and the “fold increase of binding affinity against F(ab)-4” value (VEGF [2]) was about 4 fold.
